B1: 4057273 (peptide)
chain: PAPLEPVYPGDDATPQQMAKYAADLRRYINKLTRPRY
B2: 4057146 (peptide)
chain: B1 chain with D12N, Q16E, M18V
B3: 4057337 (peptide)
chain: B1 chain with P1D, D12N, Q16E, K20R
B4: 4057441 (peptide)
chain: B1 chain with V7E, M18L, D24E
B5: 4057259 (peptide)
chain: B1 chain with P1A, V7E
B6: 4057279 (peptide)
chain: B1 chain with A2K, V7E, K20R, D24E
B7: 4057135 (peptide)
chain: B1 chain with P1D, V7E, K20R, D24E
B8: 4057145 (peptide)
chain: B1 chain with D12N, Q16E, M18L
B9: 4057235 (peptide)
chain: B1 chain with D12N, Q16E, Y37F
B10: 4057136 (peptide)
chain: B1 chain with P1G, V7E, K20R, D24E
B11: 4057140 (peptide)
chain: B1 chain with V7E, K20H, D24E
B12: 4057258 (peptide)
chain: B1 chain with V7E
B13: 4057336 (peptide)
chain: B1 chain with P1G, D12N, Q16E, K20R
B14: 4057442 (peptide)
chain: B1 chain with V7S, D24E
B15: 4057443 (peptide)
chain: B1 chain with V7D, D24E
B16: 4057147 (peptide)
chain: B1 chain with D12N, Q16E, M18D
B17: 4057335 (peptide)
chain: B1 chain with D12N, Q16E, K20R
B18: 4057148 (peptide)
chain: B1 chain with D12N, Q16E, M18T
B19: 4057338 (peptide)
chain: B1 chain with P1H, D12N, Q16E, K20R
B20: 4057270 (peptide)
chain: APLEPVYPGDNATPEQMAKYYSELRRYINKLTRPRY
B21: 4057276 (peptide)
chain: GPLEPEYPGDDATPQQMARYAAELRRYINKLTRPRY
B22: 4057274 (peptide)
chain: B21 chain with G1E
B23: 4057277 (peptide)
chain: B21 chain with G1D
B24: 4057257 (peptide)
chain: B21 chain with G1A, R19K, E23D
B25: 4057160 (peptide)
chain: B20 chain with K19R, Y21A, S22A
B26: 4057139 (peptide)
chain: B21 chain with G1A, R19H
B27: 4057138 (peptide)
chain: PLEPEYPGDDATPQQMAHYAAELRRYINKLTRPRY
B28: 4057159 (peptide)
chain: B27 chain with E5V, D10N, Q14E, H18R
B29: 4057153 (peptide)
chain: B27 chain with H18R
B30: 4057256 (peptide)
chain: B27 chain with H18K, E22D
B31: 4057163 (peptide)
chain: GAPLEPVYPGDNATPEQMARYAAELRRYINKLTRPRY
B32: 4057228 (peptide)
chain: B31 chain with G1H
B33: 4057261 (peptide)
chain: PLEPVYPGDNATPEQMAKYAADLRRYINKLTRPRY
B34: 4057334 (peptide)
chain: B33 chain with K18R
B35: 4057271 (peptide)
chain: B31 chain with G1A, R20K, A22Y, A23S
B36: 4057161 (peptide)
chain: B31 chain with G1A
B37: 4057255 (protein)
chain: CAPLEPVYPGDNATPEQMARYAADLRRYINKLTRPRYCAPLEPVYPGDNATPEQMARYAADLRRYINKLTRPRY
B38: 4057260 (protein)
chain: B37 chain with V7E, N12D, E16Q, R20K, V44E, N49D, E53Q, R57K
B39: 4057233 (peptide)
chain: B1 chain with V7F, D12N, Q16E
B40: 4057445 (peptide)
chain: B1 chain with V7T, Q16E, Q17E, D24E
B41: 4057229 (peptide)
chain: B1 chain with V7T, D12N, Q16E
B42: 4057151 (peptide)
chain: B31 chain with G1P, R20K
B43: 4057232 (peptide)
chain: B1 chain with V7E, D12N, Q16E
B44: 4057152 (peptide)
chain: B31 chain with G1P, R20H
B45: 4057444 (peptide)
chain: B1 chain with V7T, Q17E, D24E
B46: 4057446 (peptide)
chain: B31 chain with G1P, V7T, Q17E, R20K
B47: 4057440 (peptide)
chain: B31 chain with G1P, V7T, M18L, R20K
B48: 4059969 (peptide)
chain: AAPLEPHYPGDNATPEQLARYYSELRRYINKLTRPRY
B49: 4060211 (peptide)
chain: B48 chain with A1G, H7T
B50: 4059940 (peptide)
chain: PAPLEPHFPGDNATPEEMAKYAAELRRYINKLTRPRY
B51: 4059951 (peptide)
chain: B50 chain with F8Y, I29L
B52: compound of SEQ ID NO:1092 (peptide)
peptide: B50 chain with P1G
modifications: ends and bridges not checked
B53: 4060138 (peptide)
chain: B31 chain with G1P, V7K, Q17E, M18L
B54: 4060205 (peptide)
chain: B1 chain with V7E, Q16E, D24E
B55: compound of SEQ ID NO:1090 (code 4059937) (peptide)
peptide: B50 chain with P1G, F8A
modifications: ends and bridges not checked

Numbering of substitutions follows the chain as printed. No end group written: not given here.

The target in one assay is T1, human Y4 receptor (human, UniProt P50391 1-375). Kind of assay: 125I-PP displacement.
T1 sequence (P50391 whole entry): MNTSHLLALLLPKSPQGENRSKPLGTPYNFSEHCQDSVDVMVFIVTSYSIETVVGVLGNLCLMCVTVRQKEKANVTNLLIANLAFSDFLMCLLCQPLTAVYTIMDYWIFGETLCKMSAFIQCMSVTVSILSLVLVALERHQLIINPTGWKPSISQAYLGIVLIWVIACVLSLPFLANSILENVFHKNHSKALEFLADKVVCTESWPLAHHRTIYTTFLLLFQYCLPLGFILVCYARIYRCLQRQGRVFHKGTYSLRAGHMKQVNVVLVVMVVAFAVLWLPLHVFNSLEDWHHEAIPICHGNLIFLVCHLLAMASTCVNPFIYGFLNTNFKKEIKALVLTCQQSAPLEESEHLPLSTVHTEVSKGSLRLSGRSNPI
As usually defined, the IC50 is the concentration that gives 50% inhibition. Read a low IC50 as greater potency in that assay. B1 returned an IC50 of 0.061 nM.

As to B2, the IC50 worked out at 0.08 nM.

In the case of B3, the concentration for half-maximal inhibition (IC50) came out at 0.109 nM.

On to B4, for which the IC50 is 0.088 nM.

On to B5, for which the IC50 came out at 0.083 nM.

B6 gave an IC50 of 0.08 nM.

Molecule B7 gave a concentration for half-maximal inhibition (IC50) of 0.097 nM.

Take B8: the IC50 is 0.07 nM.

Turning to B9, the IC50 was found to be 0.059 nM.

For the molecule B10, the 50% inhibitory concentration (IC50) was 0.064 nM. This IC50 and that of the molecule before are within 1.5-fold of each other.

Regarding B11, the IC50 stood at 0.126 nM.

For the molecule B12, the IC50 stood at 0.078 nM.

On to B13, for which the IC50 worked out at 0.09 nM.

The molecule B14 came in with an IC50 of 0.101 nM. The IC50 values of the last two molecules are within 1.5-fold of each other.

As for B15, the IC50 is 0.078 nM.

For B16, the IC50 was found to be 0.199 nM.

On to B17, for which the IC50 amounted to 0.08 nM.

Regarding B18, the IC50 worked out at 0.069 nM.

B19 showed an IC50 of 0.078 nM.

Molecule B20 returned an IC50 of 0.085 nM.

On to B21, for which the IC50 was 0.085 nM.

The molecule B22 showed an IC50 of 0.103 nM.

Consider B23, for which the IC50 amounted to 0.093 nM.

In turn, B24 gave an IC50 of 0.083 nM.

As to B25, the IC50 was determined as 0.059 nM.

On to B26, for which the IC50 is 0.078 nM.

For B27, the IC50 came to 0.086 nM.

Molecule B28 displayed an IC50 of 0.053 nM.

In turn, B29 registered an IC50 of 0.057 nM.

The molecule B30 registered an IC50 of 0.073 nM.

In turn, B31 gave an IC50 of 0.088 nM.

B32: the IC50 turned out to be 0.068 nM.

B33 showed an IC50 of 0.056 nM.

Molecule B34 registered an IC50 of 0.082 nM. This IC50 and that of the molecule before are within 1.5-fold of each other.

Molecule B35 gave an IC50 of 0.062 nM.

B36 had an IC50 of 0.125 nM.

For the molecule B37, the IC50 was determined as 0.22 nM. This IC50 lies about 1.8-fold higher than the previous one.

In turn, B38 came in with an IC50 of 0.209 nM.

In the case of B39, the half-inhibitory concentration (IC50) is 0.13 nM.

B40 displayed a half-maximal inhibitory concentration (IC50) of 0.107 nM.

With B41, the IC50 stood at 0.143 nM.

Take B42: the 50% inhibitory concentration (IC50) is 0.056 nM. This IC50 lies about 2.6-fold lower than the previous one.

B43: the IC50 is 0.128 nM. This IC50 lies about 2.3-fold higher than the previous one.

Take B44: the IC50 is 0.141 nM.

As to B45, the IC50 came to 0.116 nM.

B46 returned an IC50 of 0.109 nM.

The molecule B47 yielded an IC50 of 0.089 nM.

Another assay has as its target T1, human Y4 receptor. Kind of assay: 125I-PP displacement. The source holds these as a separate data set.
Consider B48, for which the half-inhibitory concentration (IC50) came out at 0.05 nM.

The molecule B49 had a half-maximal inhibitory concentration (IC50) of 0.075 nM.

As to B50, the IC50 worked out at 0.115 nM.

In turn, B51 registered an IC50 of 0.093 nM.

B52 registered an IC50 of 0.09 nM.

Turning to B53, the IC50 worked out at 0.136 nM. Against the preceding molecule, the IC50 is about 1.5-fold higher.

As to B54, the IC50 came out at 0.112 nM.

B55: the IC50 is 0.209 nM.

(Values after US20100279930A1 (published 2010).)
